± gives the standard error. For some assays here: Fewer inactive variants are shown than the library holds.
B1: glmS ribozyme (parent)
chain: AUAAAAGCGCCAGAACUACAGAAAUGUAGUUGACGAGGAGGAGGUUUAUCGAAUUUUCGGCGGAUGCCUCCAAA

Columns and labels:
Details in all cases: with glucosamine-6-phosphate
glucosamine-6-phosphate [1] = variants of: B1; experiment: kcat; higher = faster cleavage; RNA array
Procedure, shortened: (§1)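 Barcoded glmS ribozyme variants on sequenced MiSeq chips were transcribed in situ by E. coli RNA polymerase and tracked through a hybridised Cy3 probe at 37 °C. Glucosamine-6-phosphate (40 μM to 10 mM) in HEPES/KCl/Mg(OAc)2 buffer was flowed in, and tiles were imaged over ~14 h. Signals were normalised to baseline and to non-cleaving reference variants; per-tile medians were fit to one- or two-exponential decays to give kobs. kcat and KM came from weighted Michaelis–Menten fits across concentrations.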

glucosamine-6-phosphate [2] = variants of: B1; experiment: self-cleavage kobs at 40 uM GlcN6P; higher = faster cleavage; RNA array
Procedure, shortened: as §1

glucosamine-6-phosphate [3] = variants of: B1; experiment: self-cleavage kobs at 10000 uM GlcN6P; higher = faster cleavage; RNA array
Procedure, shortened: as §1

glucosamine-6-phosphate [4] = variants of: B1; experiment: self-cleavage kobs at 2500 uM GlcN6P; higher = faster cleavage; RNA array
Procedure, shortened: as §1

glucosamine-6-phosphate [5] = variants of: B1; experiment: KM; higher = weaker cofactor use; RNA array
Procedure, shortened: as §1

glucosamine-6-phosphate [6] = variants of: B1; experiment: self-cleavage kobs at 640 uM GlcN6P; higher = faster cleavage; RNA array
Procedure, shortened: as §1

glucosamine-6-phosphate [7] = variants of: B1; experiment: self-cleavage kobs at 160 uM GlcN6P; higher = faster cleavage; RNA array
Procedure, shortened: as §1

Variant | kcat (glucosamine-6-phosphate [1]) | self-cleavage kobs at 40 uM GlcN6P (glucosamine-6-phosphate [2]) | self-cleavage kobs at 10000 uM GlcN6P (glucosamine-6-phosphate [3]) | self-cleavage kobs at 2500 uM GlcN6P (glucosamine-6-phosphate [4]) | KM (glucosamine-6-phosphate [5]) | self-cleavage kobs at 640 uM GlcN6P (glucosamine-6-phosphate [6]) | self-cleavage kobs at 160 uM GlcN6P (glucosamine-6-phosphate [7])
AUAAAAGCGCCAGAACUACAGAAAUGUAGUUGCCGAGGAGGAGGUUUAUCGAAUUUUCGGCGGAUGCCUUCAAA [A33C C70U] | 1.19e-05 ± 4.5e-06 s⁻¹ | – | – | – | – | – | –
AUAAAAGCGCCAGAACUACAGAAAUGUAGUUGUCGAGGAGGAGGUUUAUCGAAUUUUCGGCGGAUGCUUCCAAA [A33U C68U] | 1.75e-05 ± 1.6e-06 s⁻¹ | < 1e-05 s⁻¹ | – | – | – | – | –
AUAAAAGCGCCAGAACUACAGAAAUGUAGUUGGCGAGGAGGAGGUUUAUCGAAUUUGCGGCGGAUGCCUCCAAA [A33G U57G] | 1.21e-05 ± 4.2e-06 s⁻¹ | – | < 1e-05 s⁻¹ | – | – | – | –
AUAAAAGCGCCAGAACUACAGAAAUGUAGUUGCCGAGGAGGAGGUUCAUCGAAUUUUCGGCGGAUGCCUCCAAA [A33C U47C] | 4.24e-05 ± 1.3e-05 s⁻¹ | – | 3.37e-05 ± 1e-05 s⁻¹ | 5.42e-05 ± 1.3e-05 s⁻¹ | – | – | –
AUAAAAGCGCCAGAACUACAGAAAUGUAGUUGCCGAGGAGGAGGUUAAUCGAAUUUUCGGCGGAUGCCUCCAAA [A33C U47A] | 0.000256 ± 2.1e-05 s⁻¹ | – | 0.000195 ± 3.4e-05 s⁻¹ | 0.000136 ± 4.7e-05 s⁻¹ | 2950 ± 550 µM | 4.21e-05 ± 1.7e-05 s⁻¹ | –
AUAAAAGCGCCAGAACUACAGAAAUGUAGUUGCCGAGGAGGAGGUUUAUCGAAUUUUCGGCGGAUGCCACCAAA [A33C U69A] | < 1e-05 s⁻¹ | – | – | – | – | < 1e-05 s⁻¹ | < 1e-05 s⁻¹
AUAAAAGCGCCAGAACUACAGAAAUGUAGUUGUCGAGGAGGAGGUUUAUCGAAUUUUCGGUGGAUGCCUCCAAA [A33U C61U] | < 1e-05 s⁻¹ | – | – | – | – | < 1e-05 s⁻¹ | –
AUAAAAGCGCCAGAACUACAGAAAUGUAGUUGUCGAGGAGGAGGUUUAUCGAAUUUUCGGCGGAUGCCUCCAAA [A33U] | 0.00014 ± 3.2e-06 s⁻¹ | – | 0.000111 ± 1.4e-06 s⁻¹ | 6.53e-05 ± 1.2e-06 s⁻¹ | 2770 ± 160 µM | 2.78e-05 ± 1.1e-06 s⁻¹ | –
AUAAAAGCGCCAGAACUACAGAAAUGUAGUUGGCGAGGAGGAGGUUUAUCGAAUUUUCGCCGGAUGCCUCCAAA [A33G G60C] | < 1e-05 s⁻¹ | – | – | – | – | < 1e-05 s⁻¹ | < 1e-05 s⁻¹
AUAAAAGCGCCAGAACUACAGAAAUGUAGUUGGCGAGGAGGAGGUUUAUCGAAUUUUCGGCGGAUGCGUCCAAA [A33G C68G] | 3.02e-05 ± 6e-06 s⁻¹ | – | – | – | – | 3.59e-05 ± 1.5e-05 s⁻¹ | 3.17e-05 ± 1.3e-05 s⁻¹
AUAAAAGCGCCAGAACUACAGAAAUGUAGUUGCCGAGGAAGAGGUUUAUCGAAUUUUCGGCGGAUGCCUCCAAA [A33C G40A] | 2.31e-05 ± 2.6e-06 s⁻¹ | – | – | – | 4070 ± 1400 µM | – | –
AUAAAAGCGCCAGAACUACAGAAAUGUAGUUGUCGAGGAGGGGGUUUAUCGAAUUUUCGGCGGAUGCCUCCAAA [A33U A42G] | 0.000108 ± 7.3e-06 s⁻¹ | – | 8.89e-05 ± 3e-05 s⁻¹ | 6.02e-05 ± 1.3e-05 s⁻¹ | 2000 ± 350 µM | – | –
AUAAAAGCGCCAGAACUACAGAAAUGUAGUUGGCGAGGAGGAGGUUUAUCGAAUUUUCGGCGGAUGACUCCAAA [A33G C67A] | < 1e-05 s⁻¹ | < 1e-05 s⁻¹ | < 1e-05 s⁻¹ | – | – | – | –
AUAAAAGCGCCAGAACUACAGAAAUGUAGUUGGCGAGGAGGAGGUUUAUCGAAUUUUCGGCGGAUGUCUCCAAA [A33G C67U] | 2.01e-05 ± 2.6e-06 s⁻¹ | – | – | – | 1350 ± 420 µM | – | –
AUAAAAGCGCCAGAACUACAGAAAUGUAGUUGGCGAGGAGGAGGUUUAUCGAAUUUUCGGCGGAUGGCUCCAAA [A33G C67G] | 1.67e-05 ± 4.8e-06 s⁻¹ | – | – | – | – | – | –
AUAAAAGCGCCAGAACUACAGAAAUGUAGUUGCCGAGGUGGAGGUUUAUCGAAUUUUCGGCGGAUGCCUCCAAA [A33C A39U] | 0.000401 ± 2.3e-05 s⁻¹ | – | 0.000289 ± 1.9e-05 s⁻¹ | 0.000146 ± 1.9e-05 s⁻¹ | 4000 ± 470 µM | 5.65e-05 ± 7.9e-06 s⁻¹ | –
AUAAAAGCGCCAGAACUACAGAAAUGUAGUUGGCGAGGAGGAGGUUUAUCGAAUUUUCGGCGGAAGCCUGCAAA [A33G U65A C70G] | 4e-05 ± 6.6e-06 s⁻¹ | < 1e-05 s⁻¹ | – | – | 627 ± 310 µM | – | –
AUAAAAGCGCCAGAACUACAGAAAUGUAGUUGCCGAGGAGGGGGUUUAUCGAAUUUUCGGCGGAUGCCUCCAAA [A33C A42G] | 0.00107 ± 0.0002 s⁻¹ | – | 0.000716 ± 0.00011 s⁻¹ | 0.000266 ± 0.0001 s⁻¹ | 5240 ± 1500 µM | 0.000127 ± 2e-05 s⁻¹ | –
AUAAAAGCGCCAGAACUACAGAAAUGUAGUUGUCGAGGAGGAGGUUUAUCGAUUUUUCGGCGGAUACCUCCAAA [A33U A53U G66A] | 7.62e-05 ± 1.7e-06 s⁻¹ | – | – | – | – | – | –
AUAAAAGCGCCAGAACUACAGAAAUGUAGUUGCCGAGGAGGAGGUUUAUCGAAUUUUCGGCGGAAGCCUCCAAA [A33C U65A] | 4.76e-05 ± 2.3e-06 s⁻¹ | – | 4.47e-05 ± 1.6e-05 s⁻¹ | – | 617 ± 240 µM | – | –
AUAAAAGCGCCAGAACUACAGAAAUGUAGUUGUCGAGGAGGAGGUUUAUUGAAUUUUCGGCGGAUGCUUCCAAA [A33U C50U C68U] | 2.95e-05 ± 1.3e-05 s⁻¹ | – | – | – | – | < 1e-05 s⁻¹ | –
AUAAAAGCGCCAGAACUACAGAAAUGUAGUUGCCGAGGAGGAGGUUUAUCGAAUUAUCGGCGGAUGCCUCCAAA [A33C U56A] | 0.000161 ± 5.6e-05 s⁻¹ | – | 8.05e-05 ± 1.2e-05 s⁻¹ | – | – | – | –
AUAAAAGCGCCAGAACUACAGAAAUGUAGUUGCCGAAGAGGAGGUUUAUCGAAUUUUCGGCGGAUGCCUCCAAA [A33C G37A] | < 1e-05 s⁻¹ | < 1e-05 s⁻¹ | – | – | – | – | < 1e-05 s⁻¹
AUAAAAGCGCCAGAACUACAGAAAUGUAGUUGCCGAGGAGGAGGUUUAUCGAAAUUUCGGCGGAUGCCUCCAAA [A33C U54A] | 0.00129 ± 0.00021 s⁻¹ | – | 0.000722 ± 0.0001 s⁻¹ | 0.000323 ± 6.1e-05 s⁻¹ | 7810 ± 1700 µM | 9.44e-05 ± 1.2e-05 s⁻¹ | 4.1e-05 ± 1.7e-05 s⁻¹
AUAAAAGCGCCAGAACUACAGAAAUGUAGUUGCCGAGGAGGAGGUUUUUCGAAUUUUCGGCGGAUGCCUCCAAA [A33C A48U] | < 1e-05 s⁻¹ | < 1e-05 s⁻¹ | – | – | – | – | < 1e-05 s⁻¹

Source: the supplement of paper PMC7125110
